Test system: MS2 coat protein
Assay: apparent KD of MS2 coat protein; higher = weaker reporter binding
Conditions: Eterna round: R107
How it was run: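 The designed RNA switches were transcribed on-chip from Illumina sequencing clusters. In 100 mM Tris-HCl pH 7.5, 80 mM KCl and 4 mM MgCl2, without or with constant ligand, they were titrated with SNAP-549-labelled MS2 coat protein from 0.7 or 1.5 nM to 3 µM in twofold steps. Apparent KD is the per-design median of normalised cluster binding-curve fits.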

[1] = input ligand: theophylline 20 uM
[2] = input ligand: tryptophan 2.4 mM
[3] = input ligand: theophylline 2 mM

Sequence	apparent KD of MS2 coat protein (input ligand: arginine 13.2 mM) [nM]	apparent KD of MS2 coat protein [1] [nM]	apparent KD of MS2 coat protein [2] [nM]	apparent KD of MS2 coat protein [3] [nM]	apparent KD of MS2 coat protein (input ligand: none) [nM]
GAUGAACUAUUUGAUACCAGACUACAUGAGGAUCACCCAUGUGUGUUAAUUUUUCAGUCAGUCCCUUGGCAGCAAAUAGUUUAUC [XTheo B #2]	42.2	70.7	32.1		
UUAUGCAGGUCGGCCGCCACUACACACAUGAGGAUCACCCAUGUAGUUACUGGGUGAAGUGGCAGUAGGACCGGGACCUGCAUAU [Brourdmod05]	84.5	449		832	
GACUAUAUGAUAUGUCAGAAAUCCUCGAAACGAGGACCGGUACGGCCGCCACUCGAGUGAUAAACAUGAGGAUCACCCAUGUAAA [Tryp A Ex t2]	21	28		27.7	
AGUCGAAACUGAAGGAGCGAGAUGACAACAUUGGGUCUAACAUGAGGAUCACCCAUGUAAUCUCAGGUAGGUCGCAGUAACAAAA [Exclusion Arginine B GF 16]	172	165	93.1	104	78.7
AUAAUGAGUGGUGGAUAGGUGAUCCUCUUACGAGGACCGGUACGGCCGCCACUCGAUAACAUGAGGAUCACCCAUGUAAUAAUAA [|T'-M'-Trp-Ms2|_Design19]	21	22.6		18.9	
AGAGUCUAGUCGGCCGCCACUCAUGUCCUAAGGACAUGAGGAUCACCCAUGUACCAAAGGUACAUGAGGACCGGGACUGGACUCA [Omei Tryp B SS C v1]	23.3	345	9.28	189	75.9
GAAUAAGAAUCGGCCGCCACUCACAUGAGGAUCACCCAUGUACAUGAGGAACAUGAAAAUCACCCGAGGACCGGGAUAUAUGUUC [Excluion - Tryptophan B #1]	31.1	67.4		71.3	
AGAACCCAAGAGGAUACCAGAACGACAAUCAAAUCUUUUUACAUGAGGAUCACCCAUGUUUUCCCUUGGCAGCCUCAUGCACGAC [theeternabot_exclusion_MS2_Theo_B_43]	47.1	108	59.6		
ACCGAAAGCUCACAUGAGGAUCACCCAUGUCGAGGACCGGUACGGCCGCCACUCGGCAAAUAUAAGGGUGGACGCGUCUCUGCGU [Soramasoso]	35.4	58.8		62.1	
ACGAUAGGACAUGAGGAUCACCCAUGUGAUACCAGCCUGGAAACAGGCCCUUGGCAGCACAAAUACUCCAGAAACCUAUCGAAAA [MAT - Exclusion Theophlline A - Mod of Eli - D5]	103	263	337		
UAUAUAUAUAGGGAUACCAGCAGAGAAAACGUUUAUCCUAACAUGAGGAUCACCCAUGUAUGCCCUUGGCAGCUUUAUAUAUAUA [8.F]	23.6	27.6	24		
AGUCUUAAAGGAAGGAGCGCAAUCAUAACAUGAGGAUCACCCAUGUCGAGGUGAGGGUCAUUGCAGGUAGGUCGCCUUACUAAGA [Same State - Arginine B (Freestyle 7)]	128	88.7	78.4	134	79.6
AUACCUAAUGAGUCGUGUAACUUUUCAGAUACCAGACUUUUCGUUGUCCCUUGGCAGCUGUUUUACAUGAGGAUCACCCAUGUUG [JR_ExcTheophyA_Sub008]	14.9	18.5	14.9		
UAUAUAGUGAUGGAUACCAGCAGAGAAAACGUUUAUCCUAACAUGAGGAUCACCCAUGUAUGCCCUUGGCAGCUGUUGUUAUAUA [8.L]	20.8	30.1	21.4		
ACCGAGGCAAUGGAUACCAGUGCGCCACAAUCGUGCUUCAACAUGAGGAUCACCCAUGUGCACCCUUGGCAGCCAACGGGCUCAU [theeternabot_exclusion_MS2_Theo_B_19]	15	25.3	19.9		
GGCACAUAGUCGGCCGCCACUAGAAUAAGAAGGGAAAACAUGAGGAUCACCCAUGUAAAAGGGACUAGGACCGGGACUAUGUGCC [Shrew]	14.5	18.2		17	
ACAUUUAACUGAAGGAGCGUGAUAUUUACAUGAGGAUCACCCAUGUCUAUCAUGAGAUAUUCACAGGUAGGUCGCAGACUAAUGA [JR_ExcArginiB_Sub005]	38.9	40.9	29.4	46.9	26.7
UGUAUGUGAUCUGAUACCAGCGAUGAUAACCUGAGGAUCACCCUGGUAAGGCGAAAGCCUCGCCCUUGGCAGCAGAUCGCAUACU	407	273	800	24	583
AACAUACAAUAUUAGGUGGAUAUAAGGCGGCGAGGACCGGUACGGCCGCCACUCGCGUACAUGAGGAUCACCCAUGUCUGAAACU [Same State - Tryptophan A (Freestyle 4)]	16.6	26.8		24.3	

Sequence	apparent KD of MS2 coat protein (input ligand: arginine 13.2 mM) [nM]	apparent KD of MS2 coat protein [1] [nM]	apparent KD of MS2 coat protein [2] [nM]	apparent KD of MS2 coat protein [3] [nM]	apparent KD of MS2 coat protein (input ligand: none) [nM]
AGUAAUCUAACAGAUACCAGACGGUAUAUAACAUGAGGAUCACCCAUGUCUUGGGUGUACGUCCCUUGGCAGCUGAAAAUGAUAA [JR_SSTheophyB_Sub001]	157	551	756		
GCAUCCUAGUCGGCCGCCACUGCAACAUGAGGAUCACCCAUGUCUGCAUCUUCAUGAUGCAGUAGCAGGACCGGGACUAGGAUGC [(T1)-(M1)-(M2)-(T)''-(M)'-(T)'-(T2)_Design1_2/18/17]	69.4	153		242	
GCGACCCUGAGAUCCUACGUAACGUGAACACGAGGACCGGUACGGCCGCCACUCGAGAGAACAUGAGGAUCACCCAUGUCUGAGC [e-trypA-0]	17.3	37.2		30.8	
UGUAUGGACUGAAGGAGCGGAUGAUAACCUGAGGAUCACCCGGGUAAUAAGGCGAAAGCCAUCCAGGUAGGUCGCAGUCCAUACU	53.2	111	82.9	126	101
ACAUCCAGGUUAAUCGUGGGCAUGGUCGAUACCAGUAUUUUAAUCUACCCUUGGCAGCGACAUGAGGAUCACCCAUGUGCGAUGA [XTheo A #13]	20.1	33.7	25.8		
AAACGCCACGGAAGGAGCGACAUGAGGAUCACCCAUGUAGAUUUGGCGGAUGCACCCUCCUGUCAGGUAGGUCGCCGUGCGCUAA [XArg-B24]	51.8	90.2	100	99.9	61
CCUAUGACAUGAGGAUCACCCAUGUUGGAUACCAGCGCAUGAGGACGCCCUUGGCAGCCAAUGAACAUGAGGAUACAUGAGGAUC [Same State Theophylline A 4]	30.2	69.7	41.6		
GCUGUUGCGGUGAGGUAUCCGGCUGUGGAAGGAGCGCGGAAUGCCGCAGGUAGGUCGCCACAUGAGGAUCACCCAUGUCGAUAUA [Atzalama]	25.6	45.2	21.2	35	27.2
AGAGUCAGACAAAAGUCUGGCUCAGCCGAAGGAGCGUCCGAAAGGACAGGUAGGUCGCGGUUCCAUGAGGAUCACCCAUGGUCCU [ArgAS 28 #OpenEnded #AlternativeMS2]	47.1	85.1	71.1	119	85
CUCAUCCACGCGGCCGCCACUAUAUUGUGGUGUGAAUGUGACGUAUUACAAGAGGAUCACCCUUGUAGGACCGGGCGUGGAUGAG [Tryp B Ex Mod1]	28.5	28.4	147	34.2	20.3
UCCUCCUCCGCAAGGAGGAGGAGUUGCGAUACCAGCACGGUAACGUGCCCUUGGCAGCGCACAUGAGGAUCACCCAUGUGGUGUU [#1 Exclusion - Theophylline A Attempt #12 (HarryS)]	52.7	455	231	379	228
AGAGUUAGACAAAAGUCUAGCUCACCAGAAGGAGCGUCCGAAAGGACAGGUAGGUCGCUGGUGCAUGAGGAUCACCCAUGUUCCU [ArgAS 20 #OpenEnded #AlternativeMS2]	26.9	211	150	313	115
GGUGGCGGGACUGAUACCAGCCACCACCGAUAGACCACAUGAGGAUCACCCAUGUUGGGUGGCCCUUGGCAGCAGUCUUGCGGCU [#1 Same State - Theophylline B Attempt #14 (HarryS)]	46.8	523	739	163	797
GAUGAUAUUGCAGAUACCAGACACAUGAGGAUCACCCAUGUCGCUGAGUUGCUGGAUCGUGUCCCUUGGCAGCUGCGAUAUCAUC [Belgium]	18.3	38.5	19.7		
AUAACAUGAGGAUCACCCAUGUAAGCUGAAGGAGCGCUGGAAACAGCAGGUAGGUCGCAGCUACCUACCACCUCAUGAGGUAGGU [(M1)-(M2)-(Arg1)-(Arg2)-(A)'-(M)'-(A)''_Design6]	16.4	24.4	19	25.9	18.5
UGGCGAGAAGGAAGGAGCGUCAGCUGAGUCACAUGAGGAUCACCCAUGUAGGACAUGGUGUGACAGGUAGGUCGCCUUCUGCCCU [SS-ArgB18]	16.9	25.7	13	22.5	14.6
CACGGAAGAGUGGAUCACCCUCUUAAUAAACGAGGACCGGUACGGCCGCCACUCGAAAACCGUGACCUGUACGAAAAGUGCAGGA	31.3	202	127	437	39.4
UAUAUAUACUCGGCCGCCACUGAGAGAGUCAUGUAAACAUGAGGAUCACCCAUGUAAUAUAUAUACAGGACCGGGAGUAUAUGAA [4.B]	11.8	17.7		15.5	
AAUAUAAUAUAAAUAAUAAUAAUAUCUGAUACCAGACUCUCAUGUGUCCCUUGGCAGCAGUAACAUGAGGAUCACCCAUGUAAUA [JR_Nu_SSTheophyA_Sub027]	33	46.7	52	16.2	62.7

Source: the supplement of paper PMC9170038
